In patent publication US20240301031A1 (JIANGSU HENGRUI PHARMACEUTICALS, published 2024):

Experiments:
[1] = biological target: T1, human BAFF (10056-HNCH, Sino biological) (human, UniProt Q9Y275 134-285); test: competition ELISA: biotin-labeled BAFF to coated BCMA
T1 construct: Bought protein
Description: (§1) A receptor protein was diluted to 2 μg/mL with PBS at pH 7.4 (BasalMedia, B320) and added to a 96-well microplate (Corning, 3590) at 100 μL/well. The plate was incubated at 4° C. overnight. After the liquid was discarded, 200 μL of 1% Casein blocking solution (Thermo, 37528) was added to each well for blocking, and the plate was incubated at 37° C. for 2 h. After the blocking was completed, the blocking solution was discarded, and the plate was washed 3 times with a PBST buffer (PBS at pH 7.4 containing 0.1% tween-20) for later use. A biotin-labeled ligand protein at a fixed concentration was mixed with the antibody or fusion protein diluted in gradient, pre-incubated at 37° C. for 30 min, and added to a blocked microplate. The plate was incubated at 37° C. for 1.5 h. After the incubation was completed, the plate was washed 3 times with PBST. 100 μL of streptavidin-HRP (Invitrogen, 434323, diluted at a ratio of 1:4000) was added to each well, and the plate was incubated at 37° C. for 1 h. The supernatant was removed, and the plate was washed 3 times with PBST. […] The plate was read for absorbance values at 450 nm on a microplate reader, the curves for the inhibition of the binding of the ligands to the receptors were fitted with software, and the IC₅₀ values were calculated. […]

[2] = biological target: T2, human APRIL (5860-AP-010/CF, R&D Systems) (human, UniProt O75888 115-250, limits assumed); test: cell-based or functional assay
T2 sequence (looked up): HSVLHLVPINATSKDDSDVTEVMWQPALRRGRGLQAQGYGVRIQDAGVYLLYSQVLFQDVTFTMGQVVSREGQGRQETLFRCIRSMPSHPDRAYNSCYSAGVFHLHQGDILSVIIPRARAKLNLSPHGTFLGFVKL

[3] = biological target: BAFF (R&D Systems, 7537-BF) (UniProt Q9Y275 134-285); test: cell-based or functional assay
[4] = biological target: T1, human BAFF (10056-HNCH, Sino biological); test: SPR (Biacore), sample captured on Protein A, antigen flowed, 1:1 fit
[5] = biological target: T2, human APRIL (5860-AP-010/CF, R&D …); test: as above
[6] = biological target: T3, mouse BAFF (BAF-M521y, Acro Biosystems) (mouse, UniProt Q9WU72 127-309); test: as above
T3 construct: Bought protein

[7] = biological target: T4, mouse APRIL (7907-AP/CF, R&D Systems) (mouse, UniProt Q9D777 96-241, limits assumed); test: as above
T4 construct: Bought protein
T4 sequence (looked up): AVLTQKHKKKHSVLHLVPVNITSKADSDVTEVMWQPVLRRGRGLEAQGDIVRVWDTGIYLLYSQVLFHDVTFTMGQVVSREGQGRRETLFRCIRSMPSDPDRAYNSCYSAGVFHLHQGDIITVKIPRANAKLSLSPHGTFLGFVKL

[8] = biological target: T1, human BAFF (10056-HNCH, Sino biological); test: competition ELISA: biotin-labeled BAFF to coated TACI
Description: as §1

[9] = biological target: T2, human APRIL (5860-AP-010/CF, R&D …); test: competition ELISA: biotin-labeled APRIL to coated TACI
Description: as §1

[10] = biological target: T1, human BAFF (10056-HNCH, Sino biological); test: competition ELISA: biotin-labeled BAFF to coated BAFF-R
In short: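 Receptor coated at 2 μg/mL in PBS pH 7.4 overnight at 4° C and casein-blocked; fixed-concentration biotinylated ligand preincubated 30 min at 37° C with serially diluted antibody/fusion protein, then bound 1.5 h at 37° C. Streptavidin-HRP/TMB read at 450 nm; IC₅₀ from fitted binding-inhibition curves.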

IC50 [1]: 972 pM
IC50 (nM) for the inhibition of the APRIL-induced B cell proliferation [2]: 1.09 nM
IC50 (nM) for the inhibition of the BAFF-induced B cell proliferation [3]: 0.386 nM
Kd [4]: 186 pM
koff [4]: 0.00018 s⁻¹
kon [4]: 964000 M⁻¹ s⁻¹
Kd [5]: 28.1 pM
koff [5]: 0.000658 s⁻¹
kon [5]: 2.34e+07 M⁻¹ s⁻¹
Kd [6]: 121 pM
koff [6]: 8.98e-05 s⁻¹
kon [6]: 740000 M⁻¹ s⁻¹
Kd [7]: 6.71 pM
koff [7]: 1.69e-05 s⁻¹
kon [7]: 2.52e+06 M⁻¹ s⁻¹
IC50 [8]: 779 pM
IC50 [9]: 3300 pM
IC50 [10]: 27500 pM
B1: RCT-18 (Telitacicept) (Fc fusion)
chain: SRVDQEERFPQGLWTGVAMRSCPEEQYWDPLLGTCMSCKTICNHQSQRTCAAFCRSLSCRKEQGKFYDHLLRDCISCASICGQHPKQCAYFCENKLRSPVNLPPELDKTHTCPPCPAPEAEGAPSVFLFPPKPKDTLMISRTPEVTCVVVDVSHEDPEVKFNWYVDGVEVHNAKTKPREEQYNSTYRVVSVLTVLHQDWLNGKEYKCKVSNKALPSSIEKTISKAKGQPREPQVYTLPPSRDELTKNQVSLTCLVKGFYPSDIAVEWESNGQPENNYKTTPPVLDSDGSFFLYSKLTVDKSRWQQGNVFSCSVMHEALHNHYTQKSLSLSPGK
notes: Positive control; TACI part is positions 13-118 of the extracellular region of human TACI, the rest is Fc
